Reference: patent US20160120951A1 (ZEALAND PHARMA A S, published 2016)
Numbered stars: 1 amine (or outer) side, 2 acyl side, 3 side chain; on linkers, the order of the positions; unused ones are H or OH. Bridge positions count the residues as written; N and C are the ends. Square brackets hold non-standard residues; d marks the D form. Side chains are listed from the residue outwards. Ends that are not written are not given here. * marks the point of attachment. isoGlu = used interchangeably with γ-Glu; γGlu = O=C(O)[C@H](CCC(=O)[*:2])N[*:1]; Palmitoyl = CCCCCCCCCCCCCCCC(=O)*; Aib = CC(C)(N)C(=O)O

B1: Compound 13 (peptide)
peptide: H[Aib]QGTFTSDYSKYLDSK([γGlu-Palmitoyl])AAHDFVEWLLKA-NH2
modifications: lactam 24-28; N-terminus assumed
SMILES: CCCCCCCCCCCCCCCC(=O)N[C@@H](CCC(=O)NCCCC[C@H](NC(=O)[C@H](CO)NC(=O)[C@H](CC(=O)O)NC(=O)[C@H](CC(C)C)NC(=O)[C@H](Cc1ccc(O)cc1)NC(=O)[C@H](CCCCN)NC(=O)[C@H](CO)NC(=O)[C@H](Cc1ccc(O)cc1)NC(=O)[C@H](CC(=O)O)NC(=O)[C@H](CO)NC(=O)[C@@H](NC(=O)[C@H](Cc1ccccc1)NC(=O)[C@@H](NC(=O)CNC(=O)[C@H](CCC(N)=O)NC(=O)C(C)(C)NC(=O)[C@@H](N)Cc1c[nH]cn1)[C@@H](C)O)[C@@H](C)O)C(=O)N[C@@H](C)C(=O)N[C@@H](C)C(=O)N[C@@H](Cc1c[nH]cn1)C(=O)N[C@@H](CC(=O)O)C(=O)N[C@@H](Cc1ccccc1)C(=O)N[C@H](C(=O)N[C@H]1CCC(=O)NCCCC[C@@H](C(=O)N[C@@H](C)C(N)=O)NC(=O)[C@H](CC(C)C)NC(=O)[C@H](CC(C)C)NC(=O)[C@H](Cc2c[nH]c3ccccc23)NC1=O)C(C)C)C(=O)O
B2: Compound 12 (peptide)
peptide: H-H[Aib]QGTFTSDYSKYLDSKAAHDFVEWLLK([γGlu-Palmitoyl])A-NH2
SMILES: CCCCCCCCCCCCCCCC(=O)N[C@@H](CCC(=O)NCCCC[C@H](NC(=O)[C@H](CC(C)C)NC(=O)[C@H](CC(C)C)NC(=O)[C@H](Cc1c[nH]c2ccccc12)NC(=O)[C@H](CCC(=O)O)NC(=O)[C@@H](NC(=O)[C@H](Cc1ccccc1)NC(=O)[C@H](CC(=O)O)NC(=O)[C@H](Cc1c[nH]cn1)NC(=O)[C@H](C)NC(=O)[C@H](C)NC(=O)[C@H](CCCCN)NC(=O)[C@H](CO)NC(=O)[C@H](CC(=O)O)NC(=O)[C@H](CC(C)C)NC(=O)[C@H](Cc1ccc(O)cc1)NC(=O)[C@H](CCCCN)NC(=O)[C@H](CO)NC(=O)[C@H](Cc1ccc(O)cc1)NC(=O)[C@H](CC(=O)O)NC(=O)[C@H](CO)NC(=O)[C@@H](NC(=O)[C@H](Cc1ccccc1)NC(=O)[C@@H](NC(=O)CNC(=O)[C@H](CCC(N)=O)NC(=O)C(C)(C)NC(=O)[C@@H](N)Cc1c[nH]cn1)[C@@H](C)O)[C@@H](C)O)C(C)C)C(=O)N[C@@H](C)C(N)=O)C(=O)O
B3: Compound 16 (peptide)
peptide: HXQGTFTSDYSKYLDSKAAHDFVEWLLSA
modifications: Aib at position 2; K(Hexadecanoyl-[8-Aminooctanoyl]) at position 17; C-terminal amide (NH2)
B4: Compound 5 (peptide)
peptide: H-HSQGTFTSDYSKYLDSKAAHDFVEWLK([γGlu-Palmitoyl])RA-NH2
SMILES: CCCCCCCCCCCCCCCC(=O)N[C@@H](CCC(=O)NCCCC[C@H](NC(=O)[C@H](CC(C)C)NC(=O)[C@H](Cc1c[nH]c2ccccc12)NC(=O)[C@H](CCC(=O)O)NC(=O)[C@@H](NC(=O)[C@H](Cc1ccccc1)NC(=O)[C@H](CC(=O)O)NC(=O)[C@H](Cc1c[nH]cn1)NC(=O)[C@H](C)NC(=O)[C@H](C)NC(=O)[C@H](CCCCN)NC(=O)[C@H](CO)NC(=O)[C@H](CC(=O)O)NC(=O)[C@H](CC(C)C)NC(=O)[C@H](Cc1ccc(O)cc1)NC(=O)[C@H](CCCCN)NC(=O)[C@H](CO)NC(=O)[C@H](Cc1ccc(O)cc1)NC(=O)[C@H](CC(=O)O)NC(=O)[C@H](CO)NC(=O)[C@@H](NC(=O)[C@H](Cc1ccccc1)NC(=O)[C@@H](NC(=O)CNC(=O)[C@H](CCC(N)=O)NC(=O)[C@H](CO)NC(=O)[C@@H](N)Cc1c[nH]cn1)[C@@H](C)O)[C@@H](C)O)C(C)C)C(=O)N[C@@H](CCCNC(=N)N)C(=O)N[C@@H](C)C(N)=O)C(=O)O
B5: Compound 10 (peptide)
peptide: H-H[Aib]QGTFTSDYSKYLDSKAAK([γGlu-Palmitoyl])DFVAWLLRA-NH2
SMILES: CCCCCCCCCCCCCCCC(=O)N[C@@H](CCC(=O)NCCCC[C@H](NC(=O)[C@H](C)NC(=O)[C@H](C)NC(=O)[C@H](CCCCN)NC(=O)[C@H](CO)NC(=O)[C@H](CC(=O)O)NC(=O)[C@H](CC(C)C)NC(=O)[C@H](Cc1ccc(O)cc1)NC(=O)[C@H](CCCCN)NC(=O)[C@H](CO)NC(=O)[C@H](Cc1ccc(O)cc1)NC(=O)[C@H](CC(=O)O)NC(=O)[C@H](CO)NC(=O)[C@@H](NC(=O)[C@H](Cc1ccccc1)NC(=O)[C@@H](NC(=O)CNC(=O)[C@H](CCC(N)=O)NC(=O)C(C)(C)NC(=O)[C@@H](N)Cc1c[nH]cn1)[C@@H](C)O)[C@@H](C)O)C(=O)N[C@@H](CC(=O)O)C(=O)N[C@@H](Cc1ccccc1)C(=O)N[C@H](C(=O)N[C@@H](C)C(=O)N[C@@H](Cc1c[nH]c2ccccc12)C(=O)N[C@@H](CC(C)C)C(=O)N[C@@H](CC(C)C)C(=O)N[C@@H](CCCNC(=N)N)C(=O)N[C@@H](C)C(N)=O)C(C)C)C(=O)O
B6: Compound 15 (peptide)
peptide: HXQGTFTSDYSKYLDSKAAHDFVEWLLSA
modifications: Aib at position 2; K(Hexadecanoyl-[3-Aminopropanoyl]) at position 17; C-terminal amide (NH2)
B7: Compound 9 (peptide)
peptide: H-H[Aib]QGTFTSDYSKYLDSK([γGlu-Palmitoyl])AARDFVAWLLRA-NH2
SMILES: CCCCCCCCCCCCCCCC(=O)N[C@@H](CCC(=O)NCCCC[C@H](NC(=O)[C@H](CO)NC(=O)[C@H](CC(=O)O)NC(=O)[C@H](CC(C)C)NC(=O)[C@H](Cc1ccc(O)cc1)NC(=O)[C@H](CCCCN)NC(=O)[C@H](CO)NC(=O)[C@H](Cc1ccc(O)cc1)NC(=O)[C@H](CC(=O)O)NC(=O)[C@H](CO)NC(=O)[C@@H](NC(=O)[C@H](Cc1ccccc1)NC(=O)[C@@H](NC(=O)CNC(=O)[C@H](CCC(N)=O)NC(=O)C(C)(C)NC(=O)[C@@H](N)Cc1c[nH]cn1)[C@@H](C)O)[C@@H](C)O)C(=O)N[C@@H](C)C(=O)N[C@@H](C)C(=O)N[C@@H](CCCNC(=N)N)C(=O)N[C@@H](CC(=O)O)C(=O)N[C@@H](Cc1ccccc1)C(=O)N[C@H](C(=O)N[C@@H](C)C(=O)N[C@@H](Cc1c[nH]c2ccccc12)C(=O)N[C@@H](CC(C)C)C(=O)N[C@@H](CC(C)C)C(=O)N[C@@H](CCCNC(=N)N)C(=O)N[C@@H](C)C(N)=O)C(C)C)C(=O)O
B8: Compound 6 (peptide)
peptide: H-HSQGTFTSDYSKYLDSKAAHDFVEWLLK([γGlu-Palmitoyl])A-NH2
SMILES: CCCCCCCCCCCCCCCC(=O)N[C@@H](CCC(=O)NCCCC[C@H](NC(=O)[C@H](CC(C)C)NC(=O)[C@H](CC(C)C)NC(=O)[C@H](Cc1c[nH]c2ccccc12)NC(=O)[C@H](CCC(=O)O)NC(=O)[C@@H](NC(=O)[C@H](Cc1ccccc1)NC(=O)[C@H](CC(=O)O)NC(=O)[C@H](Cc1c[nH]cn1)NC(=O)[C@H](C)NC(=O)[C@H](C)NC(=O)[C@H](CCCCN)NC(=O)[C@H](CO)NC(=O)[C@H](CC(=O)O)NC(=O)[C@H](CC(C)C)NC(=O)[C@H](Cc1ccc(O)cc1)NC(=O)[C@H](CCCCN)NC(=O)[C@H](CO)NC(=O)[C@H](Cc1ccc(O)cc1)NC(=O)[C@H](CC(=O)O)NC(=O)[C@H](CO)NC(=O)[C@@H](NC(=O)[C@H](Cc1ccccc1)NC(=O)[C@@H](NC(=O)CNC(=O)[C@H](CCC(N)=O)NC(=O)[C@H](CO)NC(=O)[C@@H](N)Cc1c[nH]cn1)[C@@H](C)O)[C@@H](C)O)C(C)C)C(=O)N[C@@H](C)C(N)=O)C(=O)O

What follows are binders tested against T1, human glucagon receptor (Glucagon-R) (human, UniProt P47871 26-477) (assay: cell-based or functional assay).

Row | Binder | EC50 (nM) GluR, cAMP formation
1 | B1 | 0.26 nM
2 | HXQGTFTSDYSKYLDSKAAHDFVEWLLSA (Aib at position 2; K(Dodecanoyl-γ-Glu) at position 17; C-terminal amide (NH2)) [Compound 14] | 0.78 nM
3 | B2 | 0.27 nM
4 | B3 | 0.46 nM
5 | HXQGTFTSDYSKYLDSKAAHDFVEWLLSA (Aib at position 2; K(Hexadecanoyl-γ-Glu) at position 17; C-terminal amide (NH2)) [Compound 7] | 0.16 nM
6 | B4 | 0.22 nM
7 | B5 | 0.63 nM
8 | B6 | 1.87 nM
9 | B7 | 0.17 nM
10 | B8 | 0.1 nM

The binders below were run against T2, human glucagon-like peptide 1 receptor (GLP-1R) (human, UniProt P43220 24-463) (assay: cell-based or functional assay).
T2 sequence (P43220 24-463): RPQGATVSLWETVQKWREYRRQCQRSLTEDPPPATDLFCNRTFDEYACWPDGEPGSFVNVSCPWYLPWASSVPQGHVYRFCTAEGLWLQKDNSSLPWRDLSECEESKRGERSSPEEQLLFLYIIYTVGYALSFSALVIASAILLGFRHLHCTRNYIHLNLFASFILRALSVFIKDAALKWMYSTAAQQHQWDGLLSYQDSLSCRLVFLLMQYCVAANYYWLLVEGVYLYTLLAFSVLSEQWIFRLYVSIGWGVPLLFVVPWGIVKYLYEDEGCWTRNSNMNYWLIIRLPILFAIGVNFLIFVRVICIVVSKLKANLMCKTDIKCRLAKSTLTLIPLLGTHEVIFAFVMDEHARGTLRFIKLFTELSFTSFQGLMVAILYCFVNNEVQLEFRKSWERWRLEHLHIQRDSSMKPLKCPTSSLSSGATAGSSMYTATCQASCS

Row | Binder | EC50 (nM) GLP-1R, cAMP formation
11 | B1 | 0.08 nM
12 | HXQGTFTSDYSKYLDSKAAHDFVEWLLSA (Aib at position 2; K(Dodecanoyl-γ-Glu) at position 17; C-terminal amide (NH2)) [Compound 14] | 0.14 nM
13 | B2 | 0.27 nM
14 | B3 | 0.24 nM
15 | HXQGTFTSDYSKYLDSKAAHDFVEWLLSA (Aib at position 2; K(Hexadecanoyl-γ-Glu) at position 17; C-terminal amide (NH2)) [Compound 7] | 0.11 nM
16 | B4 | 0.57 nM
17 | B5 | 0.15 nM
18 | B6 | 0.23 nM
19 | B7 | 0.12 nM
20 | B8 | 0.09 nM

Target: T1, human glucagon receptor (Glucagon-R)
Assay: cell-based or functional assay
Remark: another data set of the same source

Row | Binder | EC50 (nM) GluR, cAMP formation
21 | H-H[Aib]QGTFTSDYSKYLDEK([isoGlu-Palmitoyl])AAHDFVEWLLSA-NH2 [Compound 40] | 0.18 nM
22 | H[Aib]QGTFTSDYSKYLDSK([isoGlu-Palmitoyl])AAHEFVEWLLSA-NH2 [Compound 41] | 0.08 nM
23 | H-H[Aib]QGTFTSDYSKYLDSK([isoGlu-Palmitoyl])AAHDFVEWLLEA-NH2 [Compound 43] | 0.12 nM
24 | H-H[Aib]QGTFTSDYSKYLDSK([isoGlu-Palmitoyl])AAEDFVEWLLSA-NH2 [Compound 42] | 0.27 nM

Target: T2, human glucagon-like peptide 1 receptor …
Assay: cell-based or functional assay
Remark: another data set of the same source

Row | Binder | EC50 (nM) GLP-1R, cAMP formation
25 | H-H[Aib]QGTFTSDYSKYLDEK([isoGlu-Palmitoyl])AAHDFVEWLLSA-NH2 [Compound 40] | 0.2 nM
26 | H[Aib]QGTFTSDYSKYLDSK([isoGlu-Palmitoyl])AAHEFVEWLLSA-NH2 [Compound 41] | 0.13 nM
27 | H-H[Aib]QGTFTSDYSKYLDSK([isoGlu-Palmitoyl])AAHDFVEWLLEA-NH2 [Compound 43] | 0.082 nM
28 | H-H[Aib]QGTFTSDYSKYLDSK([isoGlu-Palmitoyl])AAEDFVEWLLSA-NH2 [Compound 42] | 0.03 nM
